The record followed here is paper PMC9638894.

For experiment [1], the target named is type IF CRISPR RNA guided surveillance complex (Csy) (UniProt Q02MM2). The experiment is described as follows: ITC; AcrIF9 or AcrIF2 binding to the Csy complex; conditions not told in the text shown (Supplemental Figure S8). On the technique in general: In ITC the heat of successive injections is recorded.
The target is the same in experiment [2]. The experiment is described as follows: differential scanning fluorimetry; purified Csy (0.323 uM) or AcrIF2-bound Csy (0.475 uM) in 100 mM citrate phosphate buffer pH 7.5 with SYPRO orange; 25°C to 95°C at 1°C/min; maximum intensity of each curve compared.

Chain of AcrIF2 (natural protein) (Q6TM72 whole entry): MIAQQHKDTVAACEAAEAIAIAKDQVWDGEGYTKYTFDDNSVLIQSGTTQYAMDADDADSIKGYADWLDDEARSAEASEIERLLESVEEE

AcrIF2 (natural protein): in experiment [1], the dH is under 0. The same substance showed an increase in temperature at the maximum DSF intensity compared to unbound Csy in experiment [2] of 3 °C.
